B1: YPet-ZBP1_(170-355) (domain or fragment)
chain: SGRRAKSASIIYQHNPINMICQNGPNSWISIANSEAIQIGHGNIITRQTVSREDGSAGPRHLPSMAPGDSSTWGTLVDPWGPQDIHMEQSILRRVQLGHSNEMRLHGVPSEGPAHIPPGSPPVSATAAGPEASFEARIPSPGTHPEGEAAQRIHMKSCFLEDATIGNSNKMSISPGVAGPGGVAGS
notes: human ZBP1, RHIM-containing region, residues 170-355; also called YPet-ZBP1 RHIM; source: E. coli BL21(DE3) pLysS, purified from inclusion bodies under denaturing conditions (Ni-NTA)
B2: YPet-RIPK3_(387-518) (domain or fragment)
chain: TSSDSMAQPPQTPETSTFRNQMPSPTSTGTPSPGPRGNQGAERQGMNWSCRTPEPNPVTGRPLVNIYNCSGVQVGDNNYLTMQQTTALPTWGLAPSGKGRGLQHPPPVGSQEGPKDPEAWSRPQGWYNHSGK
notes: human RIPK3, RHIM-containing region, residues 387-518; source: E. coli BL21(DE3) pLysS, purified from inclusion bodies under denaturing conditions (Ni-NTA)

Target: the molecule itself
Experiment: single molecule fluorescence confocal spectroscopy (two-colour coincidence); proteins alone or one mCherry-tagged and one YPet-tagged protein mixed, diluted out of 8 M urea to 0.35-0.7 uM in 25 mM NaH2PO4, 150 mM NaCl, 0.5 mM DTT, pH 7.4; room temperature; 488 and 561 nm lasers

| Protein | binding result |
| --- | --- |
| B1 | binds |
| B2 | binds |

From article PMC7375649, “Varicella zoster virus encodes a viral decoy RHIM to inhibit cell death” (PLoS Pathogens, 2020)
